Source: paper PMC9303331, “Novel agonist and antagonist radioligands for the GLP‐2 receptor. Useful tools for studies of basic GLP‐2 receptor pharmacology” (British Journal of Pharmacology, 2022)
Where two headings read alike, the source gives them in different places.

Assays:
[1] = biological target: T1, mGLP‐1 receptor (mouse, UniProt O35659 22-463)
T1 construct: mouse glucagon-like peptide-1 receptor, pcDNA3.1(+) plasmid from ThermoFisher; also called mouse GLP‐1 receptor; source: COS-7, transiently transfected (pcDNA3.1(+)), on whole cells
T1 sequence (looked up): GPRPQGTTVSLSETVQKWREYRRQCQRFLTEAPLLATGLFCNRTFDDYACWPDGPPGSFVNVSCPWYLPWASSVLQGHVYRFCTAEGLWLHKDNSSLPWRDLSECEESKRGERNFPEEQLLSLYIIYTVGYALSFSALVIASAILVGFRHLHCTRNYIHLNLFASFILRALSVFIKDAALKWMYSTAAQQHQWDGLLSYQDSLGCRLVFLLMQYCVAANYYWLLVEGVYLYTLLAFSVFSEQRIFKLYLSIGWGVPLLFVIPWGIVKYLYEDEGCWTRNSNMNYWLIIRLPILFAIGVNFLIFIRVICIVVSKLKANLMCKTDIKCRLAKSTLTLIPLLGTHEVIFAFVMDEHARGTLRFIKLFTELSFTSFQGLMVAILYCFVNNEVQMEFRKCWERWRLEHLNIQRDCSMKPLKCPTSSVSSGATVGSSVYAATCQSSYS

[2] = biological target: T1, mGLP‐1 receptor; remark: listed apart in the source
[3] = biological target: T2, mGLP‐2 receptor (mouse, UniProt Q5IXF8 1-512); conditions: one partner purified
T2 construct: mouse glucagon-like peptide-2 receptor, pcDNA3.1(+) plasmid from ThermoFisher; also called mouse GLP‐2 receptor; source: COS-7, transiently transfected (pcDNA3.1(+)), on whole cells
T2 sequence (looked up): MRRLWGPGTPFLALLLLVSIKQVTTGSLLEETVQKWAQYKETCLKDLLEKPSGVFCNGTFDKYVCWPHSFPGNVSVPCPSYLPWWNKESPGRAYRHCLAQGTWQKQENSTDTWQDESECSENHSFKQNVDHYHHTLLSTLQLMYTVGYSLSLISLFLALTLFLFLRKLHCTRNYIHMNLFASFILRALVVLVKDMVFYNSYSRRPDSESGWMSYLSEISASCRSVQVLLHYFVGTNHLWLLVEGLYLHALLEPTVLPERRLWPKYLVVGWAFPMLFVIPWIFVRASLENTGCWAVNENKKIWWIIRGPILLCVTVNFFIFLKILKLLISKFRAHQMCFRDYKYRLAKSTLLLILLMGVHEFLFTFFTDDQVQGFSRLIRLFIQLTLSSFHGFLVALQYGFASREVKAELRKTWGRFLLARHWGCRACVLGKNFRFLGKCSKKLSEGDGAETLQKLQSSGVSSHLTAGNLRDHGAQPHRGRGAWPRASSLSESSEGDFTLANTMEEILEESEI

[4] = biological target: T1, mGLP‐1 receptor; conditions: one partner purified
[5] = biological target: T3, rGLP‐2 receptor (rat, UniProt Q9Z0W0 1-550); conditions: one partner purified
T3 construct: rat glucagon-like peptide-2 receptor, pcDNA3.1(+) plasmid from ThermoFisher; also called rat GLP‐2 receptor; source: COS-7, transiently transfected (pcDNA3.1(+)), on whole cells
T3 sequence (looked up): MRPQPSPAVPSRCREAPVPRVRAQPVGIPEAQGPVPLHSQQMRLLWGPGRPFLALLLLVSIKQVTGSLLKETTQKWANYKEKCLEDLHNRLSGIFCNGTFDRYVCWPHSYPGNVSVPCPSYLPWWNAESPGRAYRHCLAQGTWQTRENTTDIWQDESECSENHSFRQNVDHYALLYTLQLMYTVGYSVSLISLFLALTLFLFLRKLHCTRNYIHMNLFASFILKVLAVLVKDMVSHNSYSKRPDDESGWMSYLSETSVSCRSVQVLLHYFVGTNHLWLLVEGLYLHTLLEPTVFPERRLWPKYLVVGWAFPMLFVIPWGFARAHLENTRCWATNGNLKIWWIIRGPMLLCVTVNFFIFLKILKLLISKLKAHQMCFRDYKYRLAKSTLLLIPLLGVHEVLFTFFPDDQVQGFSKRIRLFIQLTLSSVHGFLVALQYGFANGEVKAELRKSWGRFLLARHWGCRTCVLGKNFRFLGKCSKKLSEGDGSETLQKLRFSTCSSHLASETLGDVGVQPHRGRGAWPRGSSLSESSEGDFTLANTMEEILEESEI

[6] = biological target: T2, mGLP‐2 receptor; conditions: one partner purified; remark: listed apart in the source
[7] = biological target: T1, mGLP‐1 receptor; conditions: one partner purified; remark: listed apart in the source
[8] = biological target: T3, rGLP‐2 receptor; conditions: one partner purified; remark: listed apart in the source

## [^125I]‐hGLP‐2(3–33,M10Y) (peptide)
[1]
  % max (specific binding of the radioligand, normalised to its binding to the mGLP-2 receptor): 93.3%

## [^125I]‐hGLP‐2(1–33,M10Y) (peptide)
[2]
  % max (specific binding of the radioligand, normalised to its binding to the mGLP-2 receptor): 84.5%

## HADGSFSDEMNTILDNLAARDFINWLIQTKITD [hGLP‐2(1–33)]
[3]
  Ki: 18 nM
  pIC50: 7.7
[4]
  Ki: 183 nM
  pIC50: 6.7
[5]
  Ki: 6.5 nM
  pIC50: 8.2
[6]
  Ki: 6.6 nM
  pIC50: 8.2
[7]
  Ki: 208 nM
  pIC50: 6.7
[8]
  Ki: 5.4 nM
  pIC50: 8.3
